Laboratory results reported in patent US6548634B1, “Synthetic peptides having FGF receptor affinity” (priority 1998, dated 2003).

Experiments:
[1] = Binding to heparin agarose beads
[2] = system: 293 cells expressing full-length FGFR1c; test: MAP kinase phosphorylation in 293 cells expressing FGFR1c; type: cell-based; settings: 1.0 nM bFGF or 50 nM C19jun, 15 U/ml heparin, 15 minutes
Protocol: (§1) To determine whether C19jun could activate FGF receptors in vivo, Swiss 3T3 cells were treated with basic FGF (bFGF) or purified C19jun protein. Cell extracts were then immunoprecipitated with anti-FGFR antibodies, analyzed by SDS-PAGE and immunoblotted with anti-phosphotyrosine antibodies. Extracts from bFGF and C19jun-stimulated 293 cells expressing FGFR1c were also immunoblotted with phospho-MAP Kinase-specific antibodies.
(§2) Swiss 3T3 fibroblasts, or 293 cells expressing full-length FGFRIc were incubated in quiescing media (DMEM, 1 μg/ml insulin, 5 μg/ml transferrin, 0.5 mg/ml BSA) for 24-48 hrs, and then stimulated with 1.0 nM bFGF or 50 nM refolded C19jun protein in the presence of 15 U/ml heparin for 15 minutes at 37° C. The cells were lysed and aliquots of lysate containing equal amounts of total protein were either analyzed directly by immunoblotting with phospho-MAPKspecific antibodies and anti-total MAPK antisera (New England Biolabs) or immunoprecipitated with anti-FGFR antisera and immunoblotted with anti-phosphotyrosine antibodies (Upstate Biotechnology, Inc.). Both bFGF and C19jun induced FGFR autophosphorylation and MAP kinase phosphorylation.

[3] = system: L6 myoblast cell lines stably expressing FGFR1c; test: c-fos mRNA expression in L6 myoblasts stably expressing FGFR1c; type: cell-based
[4] = system: Swiss 3T3 fibroblasts; test: BrdU incorporation (mitogenesis) in Swiss 3T3 fibroblasts; type: cell-based; settings: Swiss 3T3, presence and absence of heparin
Protocol: 6×Histidine-tagged Clone 19-jun protein (FIG. 1A) was expressed in bacteria and purified by metal affinity chromatography as described in Example 5. Assay of BrdU incorporation, a measure of entry of cells into S-phase and therefore of mitogenesis, was performed according to manufacturers instructions (Cell proliferation ELISA, BrdU, Cat. No. 1-647-229, Boehringer-Mannheim, Indianapolis, Ind.). Briefly, 1×10^4 Swiss 3T3 cells per well were plated on gelatin-coated 96-well microtiter plates in complete media (DMEM, 10% FCS, antibiotics), incubated 24 hours, and the media changed to quiescent media for an addition 24 hours (DMEM containing 0.5 mg/ml bovine serum albumin, 1 μg/ml insulin, 5 μg/ml transferrin, antibiotics). The cells were then treated with bFGF or Clone 19-jun protein at the indicated concentrations in the presence of 15 U/ml heparin. 18 hours later, BrdU was added, the cells incubated an additional 4 hours, and assayed as described. […] Heparin alone had no effect, nor did a control protein expressed and purified in the same manner in which the C19 sequence was deleted.

[5] = system: Swiss 3T3 cells; test: Swiss 3T3 mitogenesis with soluble receptor ECD competitors; type: cell-based
Protocol: To further examine the specificity of C19jun for FGFR, Swiss 3T3 cells were stimulated with C19jun in the presence of protein representing the soluble extracellular binding domain (ECD) of various receptors used as binding competitors. The mitogenic activity of C19jun was abolished by pre-incubation of the fusion protein with excess FGFR1c ECD, but was unaffected by incubation with identical concentrations of the closely related PDGF receptor ECD or with erythropoietin receptor ECD. […] Similar results were observed when phosphorylation of MAPK was analyzed in these cells.
(§3) Protein representing the linker segments and c-jun leucine zipper without the C19 sequence (FIG. 2) was expressed, purified, and characterized as for C19jun. C19 peptide with an intrapeptide disulfide bond was synthesized, purified by HPLC, and characterized by mass spectroscopy. C19junΔhep protein was prepared by changing human c-jun residues Arg276, Arg279, Lys285, and Lys288 in the leucine zipper domain to glutamines. Expression, purification, and characterization was as for C19jun. […] The extracellular ligand-binding domain of human FGFR Ic (residues 1-377) and human erythropoietin receptor (residues 1-250) were fused to the Fc region of human IgG1, expressed in baculovirus and purified by protein A affinity chromatography. Activity of the fusion proteins was confirmed by binding of [^125I]-labeled ligands. PDGF receptor Fc fusion protein was from R&D Systems.

[6] = system: FGFR; test: FGFR autophosphorylation in Swiss 3T3 cells (anti-FGFR IP, anti-phosphotyrosine blot); type: cell-based; settings: 1.0 nM bFGF or 50 nM C19jun, 15 U/ml heparin, 15 minutes
Protocol: as §1, §2

[7] = biological target: T1, FGFR1c ECD (Homo sapiens, UniProt P11362); test: BIAcore real-time kinetic analysis on immobilized FGFR1c ECD; type: binding; settings: in vitro, absence of heparin
T1 construct: human FGFR Ic (residues 1-377); made in house
T1 sequence (P11362 22-377): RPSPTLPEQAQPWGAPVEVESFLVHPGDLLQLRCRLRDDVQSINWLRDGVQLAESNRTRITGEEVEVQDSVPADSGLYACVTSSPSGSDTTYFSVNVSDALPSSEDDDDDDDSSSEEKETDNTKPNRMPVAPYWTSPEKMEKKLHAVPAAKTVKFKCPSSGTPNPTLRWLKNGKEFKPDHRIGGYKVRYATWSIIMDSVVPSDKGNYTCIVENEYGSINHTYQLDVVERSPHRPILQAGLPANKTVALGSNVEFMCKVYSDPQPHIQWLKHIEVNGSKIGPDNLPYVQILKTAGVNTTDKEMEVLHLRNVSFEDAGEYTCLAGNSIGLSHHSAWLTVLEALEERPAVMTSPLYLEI
Protocol: Apparent affinities for immobilized FGFR1c ECD were determined using BIAcore real-time kinetic analysis in the absence of heparin.
as §3, with “Activity of the fusion proteins was confirmed by binding of [^125I]-labeled ligands.” left out

[8] = system: human endothelial cells; test: Proliferation of human endothelial cells; type: cell-based
[9] = system: Swiss 3T3 cells; test: Swiss 3T3 proliferation, WST-1 long term assay; type: cell-based; settings: WST-1, 4 successive days, 15 U/ml heparin, FIG. 4
Protocol: Swiss 3T3 cells were plated on gelatin-coated 96-well microtiter plates in quiescent media containing the indicated concentrations of bFGF or C19-jun protein and 15 U/ml heparin and cell number estimated on each of 4 successive days by the WST-1 assay as per manufacturers instructions (Cell proliferation Reagent WST-1, no. 1644807, Boehringer-Mannheim).

[10] = system: control L6 cells; test: c-fos mRNA expression in control L6 cells that do not express FGFR; type: cell-based
[11] = system: PC12 cells; test: PC12 cell neurite outgrowth; type: cell-based
Protocol: 1×10^4 PC12 cells per well were plated on mouse laminin-and-poly-L-lysine-coated 24-well plates in 1 ml of media (RPMI 1640, 10% horse serum, 5% FCS, antibiotics) and stimulated with 1 nM bFGF or 2 nM C19-jun protein in the presence of 15 U/ml heparin for 4 days.

[12] = Swiss 3T3, identical concentration

B1: C19jun: C19 sequence fused via flexible linker to human c-jun leucine zipper (residues 276-314) flanked by cysteines, polyhistidine tag; SEQ ID NO:41 (protein)
chain: MAESGDDYCVLVFTDSAWTKICDWSHFRNGPGGGSGGGSGGGSGGGSGGGSRCGGRIARLEEKVKTLKAQNSELASTANMLREQVAQLKQKVMNHGGCGGSGGHHHHHH
modifications: SyArtificial Sequence
heparin binding [1]: quantitatively and specifically bound to heparin agarose beads
MAP kinase phosphorylation [2]: induced
c-fos mRNA expression in FGFR-expressing L6 cells [3]: stimulated c-fos mRNA expression
heparin dependence of mitogenic activity [4]: required for optimal mitogenic activity
mitogenic activity after pre-incubation with excess FGFR1c ECD ([5]; Swiss 3T3): abolished
mitogenic activity after incubation with PDGF receptor ECD [5, 12]: unaffected
mitogenic activity after incubation with erythropoietin receptor ECD [5, 12]: unaffected
FGFR autophosphorylation [6]: induced
binding to immobilized FGFR ECD [7]: high affinity and specificity
proliferation of human endothelial cells [8]: stimulated the proliferation
Swiss 3T3 proliferation in long term assay [9]: equal or greater extent than 1 nM bFGF
Swiss 3T3 proliferation in long term assay ([9]; listed as C19-jun): as well or better than bFGF
c-fos mRNA expression in control L6 cells [10]: neither was active
heparin dependence of morphogenic activity on PC12 cells [11]: required for the morphogenic activity
neurite outgrowth / PC12 cell differentiation ([11]; 1 nM bFGF or 2 nM C19-jun, 15 U/ml heparin, 4 days): induces PC12 cell differentiation as well or better than bFGF
